# Assay results from the nanobody polyreactivity screen of Harvey et al. (2022).
# Experiment: yeast display, Sf9 membrane polyspecificity reagent, FACS + sequencing; frameworks hold sequencing errors
# In short: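 A nanobody's polyreactivity label depends on the gate it was sorted from. Yeast display cells were stained with 10% biotinylated, detergent-solubilized Sf9 membrane reagent for 1 hour at 4 °C, enriched on streptavidin microbeads and sorted by FACS. The low and high (top ~1%) gates were set on anti-HA fluorescence for expression and streptavidin fluorescence for reagent binding.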
row,Sequence,polyreactivity (PSR sort gate)
1,QVQLVESGGGLVQAGGSLRLSCAASGITFAYYAMGWYRQAPGKERELVAAITRRGSSTYYADSVKGRFTISRDNAKNTVYLQMNSLKPEDTAVYYCAAVAYGRERYDYWGQGTQVTVSS,high polyreactivity
2,QVQLVESGGGLVQAGGSLRLSCAASGITFAYYARGWYRQAPGKERELVAAITGDGGYTYYADSVKGRFTISRDNAKNTVYLQMNSLKPEDTAVYYCNAELSDYRYDWWDYDYWGQGTQVTVSS,high polyreactivity
3,QVQLVESGGGLVQAGGSLRLSCAASGITFDGNAMGWYRQAPGKERELVAAITSGGSTYYADSVKGRFTISRDNAKNTVYLQMNSLKPEDTAVYYCAKEPPPVKGDYWGQGTQVTVSS,low polyreactivity
4,QVQLVESGGGLVQAGGSLRLSCAASGITFDGYAMGWYRQAPGKERELVAAIRSSGGSTYYADSVKGRFTISRDNAKNTVYLQMNSLKPEDTAVYYCATDHAQKFRYRSPREYWGQGTQVTVSS,low polyreactivity
5,QVQLVESGGGLVQAGGSLRLSCAASGITFDGYAMGWYRQAPGKESELVAGISWSGARSYYADSVKGRFTISRDNAKYTVYLHMNSLKPEDTAVYYCNKVSLRNHGGYDYWGQGTQVTVSS,high polyreactivity
6,QVQLVESGGGLVQAGGSLRLSCAASGITFDKYAMGWYRQAPGKERELVAAISGSDGSTYYADSVKGRFTISRDNAKNTVYLQMNSLKPEDTAVYYCAAESEYAGTYEYDYWGQGTQVTVSS,low polyreactivity
7,QVQLVESGGGLVQAGGSLRLSCAASGITFDLYAMGRYRQAPGKERELVAASTYYADSVKGRFTISRDNAKNTVYLQMNSLKPEDTAVYFCNTREPVTYDYWGQGTQVTVSS,high polyreactivity
8,QVQLVESGGGLVQAGGSLRLSCAASGITFDLYDMGWYRQAPGKERELVAAITDADSTYYADSVKGRFTISRDNAKNTVYLQMNSLKPADTAVYYCAADFFYSVYSGHYDYWGQGTQVTVSS,low polyreactivity
9,QVQLVESGGGLVQAGGSLRLSCAASGITFDRNVMGWYRKSPGKETELVAAISKSGGRTYYADSVKGRFTISRDIAKNTVYLQMNSLKTEDTAVYDCNADFYSRKSLHQYDYWGQGTQVTVSS,high polyreactivity
10,QVQLVESGGGLVQAGGSLRLSCAASGITFDRYAMAWYRHAPGKERELVAAITSSGGRTYYADSVKGRFTISRDNAKNTVYLQMNSLKPEDTAVYYCNTPWQNRADSHRDYWGQGTQVTVSS,high polyreactivity
11,QVQLVESGGGLVQAGGSLRLSCAASGITFDSNAMGWYRQAPGKERELVAVISSSGGSTNYADSVKGRFTISRDNAKNTVYLQMKSLKPEDTAVYYCAADYRFYYTRWEYSFNYWGQGTQVTVSS,high polyreactivity
12,QVQLVESGGGLVQAGGSLRLSCAASGITFDYYAMGWYRPAPGKERELVAAISGSGARTYYADSVKGRFTISRDTAKNTFYLQMNSLKPEDTAVYYCAAEYYTVPPGGIEDYWGQGTQVTVSS,high polyreactivity
13,QVQLVESGGGLVQAGGSLRLSCAASGITFEDYAMGWYRQAPGKERELVAAISWSGDITYYADSVKGRFTISRDNAKNTVYLQMNSLKPVDTAVYYCAADLSPYGYDYWGQGTQVTVSS,low polyreactivity
14,QVQLVESGGGLVQAGGSLRLSCAASGITFEGYAMGWYRQAPGKERELVAAIRSSGTSTYYADSVKGRFTISRDNAKNTVYLQMYSLKPEDTAVYYCNRARSSSRYDYWGQGTQVTVSS,low polyreactivity
15,QVQLVESGGGLVQAGGSLRLSCAASGITFEVYAMGWYRQAPGKERELVAVITSVGSTNYADSVKGRFTISRDNAKNTVYLQMNSLKPEDTAVYFCAAEKWTVRRFNPYTYYRFDYWGHGTQVTVSS,low polyreactivity
16,QVQLVESGGGLVQAGGSLRLSCAASGITFFLYAMGWYRQAPGKERELVAVISASGGSTYYADSVKGRFTISRDNAKNTVYLQMNSLKPEDTAVYYCAAGYRFYGFYAHDYWGQGTQVTVSS,high polyreactivity
17,QVQLVESGGGLVQAGGSLRLSCAASGITFFPYAMGWYRQAPGKERELVASISDGGGTNYADSVKGRFTISRDNAKNTVYFQMNSLKPEDTAVYYCATDASTYAYYGGDYWGQGTQVTVSS,low polyreactivity
18,QVQLVESGGGLVQAGGSLRLSCAASGITFFRYAMGWYRQAPGKERELVATIRSGDRTYYADSVKGRFTISRDNAKNTVYLQMNSLKPEDTAVYYCAAYDNRYTIRPENYWGQGTQVTVSS,high polyreactivity
19,QVQLVESGGGLVQAGGSLRLSCAASGITFFTYAMGWYRQAPGKERELVATISRSGGRTYYADSVKGRFTISRDNAKNTVYLQMNSLKPEDTAVYYCAARTYYWGALIVSYDYWGQGTQVTVSS,low polyreactivity
20,QVQLVESGGGLVQAGGSLRLSCAASGITFFYNAMGWYRQAPGKERELVAAISTSGGSTHYADSVKGRFTISRDIAKNTVYLQMNSLKPEDTAVYYCAARGRYRLYGYWGQGTQVTVSS,high polyreactivity
21,QVQLVESGGGLVQAGGSLRLSCAASGITFFYYAMGWYTQAPGKERELVAAISTSGGRTYYADSVKGRFTISRDNAKNTVYLQMHSLKPEDTAVYYCAARSRVQPAGPRYDYWGQGTQVTVSS,high polyreactivity
22,QVQLVESGGGLVQAGGSLRLSCAASGITFGANALGWYRQAPGKERELVAEITWSGGDTYYADSVKGRFTISRDNAKNTVYLQMNSLKPEDTAVYYCNALQPGLGSPLGEYDYWGQGTQVTVSS,low polyreactivity

row,Sequence,polyreactivity (PSR sort gate)
1,QVQLVESGGGLVQAGGSLRLSCAASGITFGANTMGCYRQAPGKERELVSAITISGGITHYADSVKGRVTISRDNAKHTVYLQLNSLKPEDTAVNYCAAGAYWRLYPYRQRNGGRRYYWGQGTQVTVSW,low polyreactivity
2,QVQLVESGGGLVQAGGSLRLSCAASGITFGDNAMGWYRQAPGKERELVAAISSGGSTDYADSVKGRFTISRDNAKNTVYLQMNSLNPEDTAVYYCAVDWVSVPEYDYWGQGTQVTVSS,low polyreactivity
3,QVQLVESGGGLVQAGGSLRLSCAASGITFGEYAMGWYRQAPGKERQLVAAITTSGTSTYYADSVKGRFTISRDNAKNTDYLQMNSLKPEDTAVYYCAAYSRAAAGFYSSRRDYYWGQGTQVSVSS,low polyreactivity
4,QVQLVESGGGLVQAGGSLRLSCAASGITFGFNAMGWNRQAPGKERELVAAITWSVGRTYYADSVKGRFTISRDNAKNTVYLQMNSLKPEDTAVYYCAKDFEAGDDYFAYDYWGQGTQVTVSS,low polyreactivity
5,QVQLVESGGGLVQAGGSLRLSCAASGITFGFNAMGWYRQAPGKERELVAAITWSVGRTYYADSVKGRFTISRDNAKNTVYLQMNSLKPEDTAVYYCAKDFEAGDDYFAYDYWGQGTQVTVSS,low polyreactivity
6,QVQLVESGGGLVQAGGSLRLSCAASGITFGGNALGWYRQAPGTERELVAGIDDGGSTNYADSVKGRFTISRDNAKNTVYLQMNSLKPEDTAVYYCAVQGHPPLVILPGFLFDYWGQGTQVTVSS,low polyreactivity
7,QVQLVESGGGLVQAGGSLRLSCAASGITFGGNAMGWSRQAPGKERELVAAIDEGGGSTYYADSVKGRFTISRDNAKNTVYLQMNSLKPEDTAVYYCAADFVYYGYYYWGQGTQVTVSS,low polyreactivity
8,QVQLVESGGGLVQAGGSLRLSCAASGITFGGNAMGWYRQAPGKERELVAAISRRGGSTYYADSVKGRFTISRDNAKNTVYLQMNSLKPEDTAVYYCAAYDPVNSPGYDYWGQGTQVTVSS,high polyreactivity
9,QVQLVESGGGLVQAGGSLRLSCAASGITFGIYAMGWDRQAPGKERELVAAISLSGGSTYYADSVKGRFTISRDNAKNTVYLQMNSVKPEDTAVYYCNARRNRYGEYYWGQGTQVTVSS,high polyreactivity
10,QVQLVESGGGLVQAGGSLRLSCAASGITFGKNAMVWYRQAPGKEREFDAAISWGGGRTYYADSVKGRFTISRDNAKNTVYLQMNSLKPEDTAVYYCNVGPRAGWYRSNYDYWGQGTQVTVSS,low polyreactivity
11,QVQLVESGGGLVQAGGSLRLSCAASGITFGNYAMGWYRQAPGKDRELVAAITGSGGRTYYADSVKGRFTISRDNAKNTVYLQMNSLKPEDTAVYYCNRRQYGRKKQYDYWGQGTQVTVSS,low polyreactivity
12,QVQLVESGGGLVQAGGSLRLSCAASGITFGNYAMGWYRQAPGKEREFVAAISQSYGRTYYADSVKGRFTISRDNAKNTVYLQMNSLKPEDTAVYYCAARTRGSSRGDYDYWGQGTQVTVSS,high polyreactivity
13,QVQLVESGGGLVQAGGSLRLSCAASGITFGPYAMGWYRQAPGKERELVATISSSGGSTYYADSVKGRFTISRDNAKNTVYLQMNSLIPEDTAVYYCNAGYAPYLGAYDYWGQGTQVTVSS,low polyreactivity
14,QVQLVESGGGLVQAGGSLRLSCAASGITFGQNAMGWYRQAPGKEREYVATITASGSTYYADSVKGRFTISRDNAKNTVYLQMNSLKPEDTAVYYCATRYAGEYYWDYDYWGQGTQVTVSS,high polyreactivity
15,QVQLVESGGGLVQAGGSLRLSCAASGITFGRNAMGWSRQAPGKERELVAAISRGGSTNYADSVKGRFTISRDNAKNTVYLQMTRLKPEDTAVYYCATAYRGRAWGYDYWGQGTQVTVSS,high polyreactivity
16,QVQLVESGGGLVQAGGSLRLSCAASGITFGRNTMGWSRQAPGKERELVAAIDSGANTYADSVKGRFTISSDNAKNTVYLQMISLKPEDSAVYYCAVDGGEFSSYGYWGQGTQVTVSW,low polyreactivity
17,QVQLVESGGGLVQAGGSLRLSCAASGITFGRNTMGWYRQAPGKERELVAAIDSGGNTYADSVKGRFTISRDNAKNTVYLQMNSLKPEDTAVYYCAVDGGEFSSYGYWGQGTEVTVSS,low polyreactivity
18,QVQLVESGGGLVQAGGSLRLSCAASGITFGRYAMGWYRQAPGKERELVAAISSRTGRTYYADSVKGRFTISRDNAKNTVYLQMNSLKPEDTAVYYCARDSKLSASYDRDDSWGQGTQVTVSS,high polyreactivity
19,QVQLVESGGGLVQAGGSLRLSCAASGITFGSNTMGLYRQAPGKERELVAVITWSGGSTYYADSVKGRFTISRDNAKNTVYLQMNSLIPEDTAVYDCAKPGEVNGQPPPQTESAYDYRGQGTQVTVSS,low polyreactivity
20,QVQLVESGGGLVQAGGSLRLSCAASGITFGSYAMGWYRQAPGKERELVATISKSGGSTYYADSVKGRFTISRDNEKNTVYLQMNSLKPEDTAVYYCARRYVAKRMDFWGQGTQVTVSS,high polyreactivity
21,QVQLVESGGGLVQAGGSLRLSCAASGITFGWYAMGLYRQAPGKERELVAAISTGSSTYYADSVKGRFTISRDNAKNTVYLQMNSLKPEDTAVYYCNAYPGPSGTLYVTPYDYWGQGTQVTVSS,high polyreactivity
